Positions count from the first letter of the chain named. Names may count otherwise. “And” between values parts separate entries of the source, which are not always exact repeats. Equal values may be shown once. Each block holds one molecule with its values, some of them ahead of it.
Key:
[1] = biological target: nonC4Δ15 with R208G (maize (Zea mays)); experiment: native gel or EMSA; native PAGE (6% or 7%) of purified recombinant proteins, 100 V, 4 °C; Coomassie staining or in-gel NADP-ME activity assay; oligomeric state from mobility against native markers
[2] = biological target: nonC4N172D mutant of maize nonC4-NADP-ME (maize (Zea mays)); experiment: as above
[3] = biological target: nonC4Δ15 variant of maize nonC4-NADP-ME (maize (Zea mays)); experiment: as above
[4] = biological target: nonC4R208G mutant of maize nonC4-NADP-ME (maize (Zea mays)); experiment: as above
[5] = biological target: maize Cyt2-NADP-ME, recombinant wild type (maize (Zea mays)); experiment: as above
[6] = biological target: plastidic nonC4-NADP-ME from maize extracts (maize (endogenous in maize etiolated leaves and roots)); experiment: native gel or EMSA; native PAGE (7%) of maize extracts of etiolated leaves and roots; in-gel NADP-ME activity assay, active bands excised and identified by mass spectrometry; mobility compared with the recombinant proteins
[7] = biological target: nonC4Δ15 with R171T (maize (Zea mays)); experiment: native gel or EMSA; native PAGE (6% or 7%) of purified recombinant proteins, 100 V, 4 °C; Coomassie staining or in-gel NADP-ME activity assay; oligomeric state from mobility against native markers
[8] = biological target: C4 + 15 variant of maize C4-NADP-ME (maize (Zea mays)) (UniProt P16243); experiment: as above
[9] = biological target: nonC4R171T mutant of maize nonC4-NADP-ME (maize (Zea mays)); experiment: as above
[10] = biological target: nonC4I148F mutant of maize nonC4-NADP-ME (maize (Zea mays)); experiment: as above
[11] = biological target: nonC4Δ15 with I148F (maize (Zea mays)); experiment: as above
[12] = biological target: nonC4Δ15 with N172D (maize (Zea mays)); experiment: as above
[13] = biological target: the molecule itself; experiment: as above
purified protein = substrate: O=C(O)C[C@H](O)C(=O)O; experiment: purified protein; assay type: biochemical, Zea mays; settings: pH 8.0, 25 °C, 0.5 mM NADP, 10 mM MgCl2

- stoichiometry N [1]: 4
Molecule: nonC4Δ15 with R208G (enzyme)

- stoichiometry N [2]: 4
Molecule: nonC4N172D mutant of maize nonC4-NADP-ME (enzyme)

- stoichiometry N [3]: 2
Molecule: nonC4Δ15 variant of maize nonC4-NADP-ME (enzyme)

- stoichiometry N [4]: 4
Molecule: nonC4R208G mutant of maize nonC4-NADP-ME (enzyme)

- stoichiometry N [5]: 4
Molecule: maize Cyt2-NADP-ME, recombinant wild type (enzyme)

- stoichiometry N [6]: 2
Molecule: plastidic nonC4-NADP-ME from maize extracts (enzyme)

- stoichiometry N [7]: 4 and 2
Molecule: nonC4Δ15 with R171T (enzyme)

- stoichiometry N [8]: 4
Molecule: C4 + 15 variant of maize C4-NADP-ME (from UniProt P16243 63-636) (enzyme)

- stoichiometry N [9]: 2 and 4
Molecule: nonC4R171T mutant of maize nonC4-NADP-ME (enzyme)

- stoichiometry N [10]: 2
Molecule: nonC4I148F mutant of maize nonC4-NADP-ME (enzyme)

- stoichiometry N [11]: 4 and 2
Molecule: nonC4Δ15 with I148F (enzyme)

- stoichiometry N [12]: 4
Molecule: nonC4Δ15 with N172D (enzyme)

B1: C4N15GR variant of maize C4-NADP-ME (enzyme)
chain: AAGVVVEDHYGEDSASEELPVMPWATSVASGYTLLRDPHHNKGLAFTEEERDGHYLRGLLPPAVLSQELQIKKFMNTLRQYQTPLQRYIAMMNLQETDERLFYKLLIDNVVELLPFVYTPTVGEACQKYGSIFRRPQGLYVSLKDKGKVLEVLRNWPHRNIQVICVTDGERILGLGDLGCQGMGIPVGKLALYTALGGVDPSVCLPITIDVGTNNEKLLNDEFYIGLRQKRATGEEYDELIEEFMSAVKQFYGEKVLIQFEDFANHNAFDLLEKYSKSHLVFNDDIQGTASVVLAGLLAALKMVGGTLAEQTYLFLGAGEAGTGIAELIALEISKQTNAPIEECRKKVWLVDSKGLIVDSRKGSLQPFKKPWAHEHEPLKTLYDAVQSIKPTVLIGTSGVGRTFTKEIIEAMSSFNERPIIFSLSNPTSHSECTAEQAYTWSQGRSIFASGSPFAPVEYEGKTFVPGQSNNAYIFPGLGLGLVISGAVRVHEDMLLAASKALADQATQDNFEKGSIFPPFTSIRKISAHIAAAVAAKAYELGLATRLPPPSDLVKYAENCMYTPVYRNYR
- stoichiometry N [13]: 2

B2: C4-NADP-ME (Zea mays) (protein)
chain: AMVSNAETETEKEQEEAAAASEELPVMPWATSVASGYTLLRDPHHNKGLAFTEEERDGHYLRGLLPPAVLSQELQIKKFMNTLRQYQTPLQRYIAMMNLQETDERLFYKLLIDNVVELLPFVYTPTVGEACQKYGSIFGRPQGLYVSLKDKGKVLEVLRNWPHRNIQVICVTDGERILGLGDLGCQGMGIPVGKLALYTALGGVDPSVCLPITIDVGTNNEFLLNDEFYIGLRQKRATGEEYDELIEEFMSAVKQFYGEKVLIQFEDFANHNAFDLLEKYSKSHLVFNDDIQGTASVVLAGLLAALKMVGGTLAEQTYLFLGAGEAGTGIAELIALEISKQTNAPIEECRKKVWLVDSKGLIVDSRKGSLQPFKKPWAHEHEPLKTLYDAVQSIKPTVLIGTSGVGRTFTKEIIEAMSSFNERPIIFSLSNPTSHSECTAEQAYTWSQGRSIFASGSPFAPVEYEGKTFVPGQSNNAYIFPGLGLGLVISGAVRVHEDMLLAASKALADQATQDNFEKGSIFPPFTSIRKISAHIAAAVAGKAYELGLATRLPPPSDLVKYAENCMYTPVYRNYR
notes: mature protein without transit peptide, E. coli, pET16b His-tag (Factor Xa site); homotetramer about 250 kDa
- Km (purified protein): 170 ± 20 µM
- kcat (purified protein): 67.5 ± 1.4 s⁻¹

B3: C4-NADP-ME (Zea mays; G200R) (protein)
chain: B2 chain with G139R
notes: as for B2
- Km (purified protein): 2450 ± 450 µM
- kcat (purified protein): 21.6 ± 0.8 s⁻¹

B4: C4NnC4GR variant of maize C4-NADP-ME (enzyme)
chain: AAEMEQEEAEVAAAAAGVVVEDHYGEDSASEELPVMPWATSVASGYTLLRDPHHNKGLAFTEEERDGHYLRGLLPPAVLSQELQIKKFMNTLRQYQTPLQRYIAMMNLQETDERLFYKLLIDNVVELLPFVYTPTVGEACQKYGSIFRRPQGLYVSLKDKGKVLEVLRNWPHRNIQVICVTDGERILGLGDLGCQGMGIPVGKLALYTALGGVDPSVCLPITIDVGTNNEKLLNDEFYIGLRQKRATGEEYDELIEEFMSAVKQFYGEKVLIQFEDFANHNAFDLLEKYSKSHLVFNDDIQGTASVVLAGLLAALKMVGGTLAEQTYLFLGAGEAGTGIAELIALEISKQTNAPIEECRKKVWLVDSKGLIVDSRKGSLQPFKKPWAHEHEPLKTLYDAVQSIKPTVLIGTSGVGRTFTKEIIEAMSSFNERPIIFSLSNPTSHSECTAEQAYTWSQGRSIFASGSPFAPVEYEGKTFVPGQSNNAYIFPGLGLGLVISGAVRVHEDMLLAASKALADQATQDNFEKGSIFPPFTSIRKISAHIAAAVAAKAYELGLATRLPPPSDLVKYAENCMYTPVYRNYR
- stoichiometry N [13]: 2

B5: C4T163R mutant of maize C4-NADP-ME (enzyme, maize (Zea mays), UniProt P16243 63-636, looked up)
chain: MVSNAETETEKEQEEAAAASEELPVMPWATSVASGYTLLRDPHHNKGLAFTEEERDGHYLRGLLPPAVLSQELQIKKFMNTLRQYQTPLQRYIAMMNLQERDERLFYKLLIDNVVELLPFVYTPTVGEACQKYGSIFGRPQGLYVSLKDKGKVLEVLRNWPHRNIQVICVTDGERILGLGDLGCQGMGIPVGKLALYTALGGVDPSVCLPITIDVGTNNEFLLNDEFYIGLRQKRATGEEYDELIEEFMSAVKQFYGEKVLIQFEDFANHNAFDLLEKYSKSHLVFNDDIQGTASVVLAGLLAALKMVGGTLAEQTYLFLGAGEAGTGIAELIALEISKQTNAPIEECRKKVWLVDSKGLIVDSRKGSLQPFKKPWAHEHEPLKTLYDAVQSIKPTVLIGTSGVGRTFTKEIIEAMSSFNERPIIFSLSNPTSHSECTAEQAYTWSQGRSIFASGSPFAPVEYEGKTFVPGQSNNAYIFPGLGLGLVISGAVRVHEDMLLAASKALADQATQDNFEKGSIFPPFTSIRKISAHIAAAVAGKAYELGLATRLPPPSDLVKYAENCMYTPVYRNYR
notes: C4-NADP-malic enzyme (ZmC4-NADP-ME), plastidic C4 isoform of maize; source: E. coli Rosetta2 (DE3) or ArcticExpress (DE3), purified (Ni-NTA)
- stoichiometry N [13]: 2 and 4

B6: C4D164N mutant of maize C4-NADP-ME (enzyme, maize (Zea mays), UniProt P16243 63-636, looked up)
chain: B5 chain with R101T, D102N
notes: as for B5
- stoichiometry N [13]: 2 and 4

B7: C4Y632F mutant of maize C4-NADP-ME (enzyme, maize (Zea mays), UniProt P16243 63-636, looked up)
chain: B5 chain with R101T, Y570F
notes: as for B5
- binding result [13]: binds

B8: C4G200R mutant of maize C4-NADP-ME (enzyme, maize (Zea mays), UniProt P16243 63-636, looked up)
chain: B5 chain with R101T, G138R
notes: C4-NADP-malic enzyme (ZmC4-NADP-ME), plastidic C4 isoform of maize; also called C4-NADP-ME-G200R; source: E. coli Rosetta2 (DE3) or ArcticExpress (DE3), purified (Ni-NTA)
- stoichiometry N [13]: 2
